Data as given in paper PMC3882083 (Nature methods, 2013).

Key:
3XFLAG-CDK4 R24C = 3XFLAG-CDK4 R24C (human, UniProt P11802 1-303, R24C); test: affinity purification with mass spectrometry
3XFLAG-CDK4 R24H = 3XFLAG-CDK4 R24H (human, UniProt P11802 1-303, R24H); test: affinity purification with mass spectrometry
Chain of 3XFLAG-CDK4 R24H (P11802 whole entry R24H): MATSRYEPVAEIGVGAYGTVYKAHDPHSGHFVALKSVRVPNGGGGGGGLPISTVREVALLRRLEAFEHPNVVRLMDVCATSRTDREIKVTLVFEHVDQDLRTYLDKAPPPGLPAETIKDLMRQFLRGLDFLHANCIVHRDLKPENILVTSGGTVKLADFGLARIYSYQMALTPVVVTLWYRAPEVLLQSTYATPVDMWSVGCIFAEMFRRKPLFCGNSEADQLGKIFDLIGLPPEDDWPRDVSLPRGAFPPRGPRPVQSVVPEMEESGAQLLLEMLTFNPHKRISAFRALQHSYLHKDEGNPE

Chain of 3XFLAG-CDK4 R24C (P11802 whole entry R24C): as the sequence (P11802 whole entry R24H) above, with H24C counted along it

Row | fold increase against CDK4 WT (3XFLAG-CDK4 R24C) | fold increase against CDK4 WT (3XFLAG-CDK4 R24H) | Binder
1 | ≥ 3.9 fold | ≥ 3.9 fold | CDC37 co-chaperone (natural protein) MVDYSVWDHIEVSDDEDETHPNIDTASLFRWRHQARVERMEQFQKEKEELDRGCRECKRKVAECQRKLKELEVAEGGKAELERLQAEAQQLRKEERSWEQKLEEMRKKEKSMPWNVDTLSKDGFSKSMVNTKPEKTEEDSEEVREQKHKTFVEKYEKQIKHFGMLRRWDDSQKYLSDNVHLVCEETANYLVIWCIDLEVEEKCALMEQVAHQTIVMQFILELAKSLKVDPRACFRQFFTKIKTADRQYMEGFNDELEAFKERVRGRAKLRIEKAMKEYEEEERKKRLGPGGLDPVEVYESLPEELQKCFDVKDVQMLQDAISKMDPTDAKYHMQRCIDSGLWVPNSKASEAKEGEEAGPGDPLLEAVPKTGDEKDVSV
2 | ≥ 3 fold | ≥ 3 fold | HSP90AB1 (natural protein) not shown
